“And” between values parts separate entries of the source, which are not always exact repeats. Equal values may be shown once.

The target of assay [1] is gp120, the major envelope glycoprotein of HIV-I (HIV-1). Put plainly: saturation binding of 125I-gp120 in solution, immunoprecipitation with OKT4, Scatchard analysis.
In assay [2] the target is HIV-1 strain HTLV-IIIB (virus) (HIV-1 strain HTLV-IIIB). Put plainly: cell-based or functional assay.
The target in assay [3] is gp120, the major envelope glycoprotein of HIV-I (HIV-1). Put plainly: gp120 binding by the method of Smith et al., Science 238:1704-07 (1987).
Assay [4] has as its target Fcγ receptor (determined with U937 cells) (Homo sapiens (Human)) (UniProt P12314). Put plainly: binding to Fcγ receptor on U937 cells, method of Anderson et al., J. Immunol. 125:2735-2741 (1980).
UniProt P12314, sequence (P12314 16-374 limits assumed, form in doubt): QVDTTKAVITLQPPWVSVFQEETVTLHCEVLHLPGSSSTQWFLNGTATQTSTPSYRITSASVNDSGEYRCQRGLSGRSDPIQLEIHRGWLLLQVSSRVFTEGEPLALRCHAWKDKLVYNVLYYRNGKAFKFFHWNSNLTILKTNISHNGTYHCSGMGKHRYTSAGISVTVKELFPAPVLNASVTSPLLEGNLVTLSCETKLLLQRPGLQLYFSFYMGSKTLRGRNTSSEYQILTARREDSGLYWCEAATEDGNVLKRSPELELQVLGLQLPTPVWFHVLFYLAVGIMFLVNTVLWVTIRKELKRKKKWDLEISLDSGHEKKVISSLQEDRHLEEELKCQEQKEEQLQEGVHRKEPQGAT

With “CD4T (CD4 fused after residue 368 of mature CD4 to 9 residues coded by pBR322 sequence) (from UniProt P01730 27-393) (receptor)”, the Kd (as a rule, the equilibrium constant for the complex coming apart) in assay [1] is 0.83 nM. Besides, in assay [2], the Indirect immunofluorescence (% positive cells), inhibitor supernatant 1:4 (% positive cells) is 18 and 16.1; the Indirect immunofluorescence (% positive cells), inhibitor supernatant undil. (% positive cells) is 0.4 and 0.8; the Reverse transcriptase (cpm/ml × 10^5), inhibitor supernatant 1:4 was 372000 cpm/ml and 594000 cpm/ml; the Reverse transcriptase (cpm/ml × 10^5), inhibitor supernatant undil. is 11000 cpm/ml and 15000 cpm/ml.
Consider “CD42γ1 immunoadheson (CD4 to glutamine residue 180 fused to the constant region of human immunoglobulin γ1) (Fc fusion)”, for which the Kd in assay [3] worked out at 1.4 nM; in assay [4], 3.01 nM.
On to “CD44γ1 immunoadheson (CD4 to serine residue 366 fused to the constant region of human immunoglobulin γ1) (Fc fusion)”, for which the Kd in assay [3] is 1.2 nM; in assay [4], 2.83 nM.
bulk human IgG1 (antibody): the Kd in assay [4] was 3.52 nM.
Regarding “gDCD4T (signal peptide and first 27 residues of mature HSV type I gD glycoprotein fused to mature CD4T) (receptor)”, in assay [1], the Kd was 0.72 nM. In assay [2], the Indirect immunofluorescence (% positive cells), inhibitor supernatant 1:4 (% positive cells) was 26.8 and 36.1; the Reverse transcriptase (cpm/ml × 10^5), inhibitor supernatant 1:4 is 992000 cpm/ml and 1.13e+06 cpm/ml; the Reverse transcriptase (cpm/ml × 10^5), inhibitor supernatant undil. is 14000 cpm/ml and 23000 cpm/ml.

These data come from patent publication US20040197809A1.
